Data reported in article doi:10.1101/2020.09.14.296129 (bioRxiv, 2020).

Target: calmodulin (calcium-loaded, holo-CaM) (UniProt P0DP23)
Experiment: other fluorescence titration + ITC

Binder	fold decrease of affinity for CaM against P454 [fold]	Kd [µM]
ASAHWGQRALQGAQAVAAAQRLVSAAALMTQ [P454 H477S-I479A peptide]	~20	–
ASAHWGQRALQGAQAVAAAQRAVSAAALMTQ [P454 L475A-H477S-I479A peptide]	~20	–
ASAHAGQRAAQGAQAVAAAQRLVHAIALMTQ [P454 W458A-L463A peptide]	4	–
ASAHWGQEALQGAQAVAAAQELVHAIALMTQ [P454_(R12E) peptide (P454 with R461 and R474 substituted by glutamate)]	–	22.7
